# Data published in patent US20110311446A1 (DYAX, published 2011).
# Target: T1, cMet-Fc fusion protein (human, UniProt P08581 25-932)
# T1 construct: extracellular domain; also called soluble cMet-Fc fusion protein; cMet-Fc (R&D Systems); not shown: Fc part, not described
# Test: phage ELISA on cMet-Fc, competitor HGF 500 ng/mL
# Experimental: (§1) These assays were conducted using the peptide-displaying phage discovered from the initial selection and screening campaigns using the first generation peptide libraries. Briefly, 96-well plates were coated overnight at 4 C with 0.5 μg/mL of cMet-Fc fusion protein or TRAIL-Fc fusion protein (background). The plates were blocked for 2 hours at 37 C with 3% BSA in PBST. […] This was followed by an addition of 30 μL of peptide-displaying phage overnight culture to each well. The plates were incubated for 2 hours at room temperature, washed with PBST and cMet-binding peptide-displaying phage was detected using an HRP-conjugated anti-M13 antibody.
# T1 sequence (P08581 25-932): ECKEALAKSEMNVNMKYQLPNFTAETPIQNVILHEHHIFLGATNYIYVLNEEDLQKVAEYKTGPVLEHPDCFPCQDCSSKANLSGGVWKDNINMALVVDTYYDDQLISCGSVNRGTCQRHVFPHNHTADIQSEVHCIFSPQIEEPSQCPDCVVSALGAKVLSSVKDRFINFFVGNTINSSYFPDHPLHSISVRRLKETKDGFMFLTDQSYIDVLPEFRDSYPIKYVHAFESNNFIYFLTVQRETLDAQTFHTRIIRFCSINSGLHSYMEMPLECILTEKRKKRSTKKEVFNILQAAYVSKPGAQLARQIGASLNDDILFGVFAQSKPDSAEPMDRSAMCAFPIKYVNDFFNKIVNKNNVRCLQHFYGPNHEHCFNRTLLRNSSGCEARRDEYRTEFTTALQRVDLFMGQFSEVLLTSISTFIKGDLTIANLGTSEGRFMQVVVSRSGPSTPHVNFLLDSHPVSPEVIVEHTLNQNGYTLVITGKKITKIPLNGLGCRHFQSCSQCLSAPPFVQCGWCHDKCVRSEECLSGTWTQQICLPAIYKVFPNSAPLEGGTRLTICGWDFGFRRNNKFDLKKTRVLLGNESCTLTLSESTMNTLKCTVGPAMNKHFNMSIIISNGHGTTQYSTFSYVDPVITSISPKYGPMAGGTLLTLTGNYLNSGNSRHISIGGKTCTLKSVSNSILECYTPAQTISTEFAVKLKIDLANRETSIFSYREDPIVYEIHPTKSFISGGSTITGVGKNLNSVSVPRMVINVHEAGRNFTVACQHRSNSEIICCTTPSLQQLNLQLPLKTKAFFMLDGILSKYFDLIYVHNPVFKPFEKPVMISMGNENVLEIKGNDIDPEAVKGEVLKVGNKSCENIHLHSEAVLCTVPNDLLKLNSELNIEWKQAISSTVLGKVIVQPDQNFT
row,Binder,% of binding in the absence of HGF
1,AGQFYCSGPPTFQCIMIGT [peptide-displaying phage 550-F11],23%
2,AGETFCSGWPTFECMQWGT (on M13 phage) [peptide-displaying phage 547-H03],43%

# Target: T2, human cMet on 3T3 cells (human, UniProt P08581 25-1390)
# T2 construct: whole, on cells; also called cell surface-expressed human cMet
# Test: phage whole cell ELISA, 3T3 human cMet vs 3T3
# Experimental: Whole cell ELISAs were performed using 3T3 cells that over-express human cMet. […] Briefly, 96-well plates were seeded with 10⁵ cells per well. The plates were centrifuged for 5 minutes at 1600 rpm to pellet the cells. The resulting cell layer was fixed with 0.1% (v/v) glutaraldehyde for 12 minutes at 37 C. […] Peptide-displaying phage also were blocked in the above solution for 1 hour at 37 C. 100 μL of blocked phage was then added to each well and the plates were incubated for 1 hour at room temperature. The plates were washed with PBST. cMet-binding peptide-displaying phage were detected using an HRP-conjugated anti-M13 antibody.
# T2 sequence (P08581 25-1390): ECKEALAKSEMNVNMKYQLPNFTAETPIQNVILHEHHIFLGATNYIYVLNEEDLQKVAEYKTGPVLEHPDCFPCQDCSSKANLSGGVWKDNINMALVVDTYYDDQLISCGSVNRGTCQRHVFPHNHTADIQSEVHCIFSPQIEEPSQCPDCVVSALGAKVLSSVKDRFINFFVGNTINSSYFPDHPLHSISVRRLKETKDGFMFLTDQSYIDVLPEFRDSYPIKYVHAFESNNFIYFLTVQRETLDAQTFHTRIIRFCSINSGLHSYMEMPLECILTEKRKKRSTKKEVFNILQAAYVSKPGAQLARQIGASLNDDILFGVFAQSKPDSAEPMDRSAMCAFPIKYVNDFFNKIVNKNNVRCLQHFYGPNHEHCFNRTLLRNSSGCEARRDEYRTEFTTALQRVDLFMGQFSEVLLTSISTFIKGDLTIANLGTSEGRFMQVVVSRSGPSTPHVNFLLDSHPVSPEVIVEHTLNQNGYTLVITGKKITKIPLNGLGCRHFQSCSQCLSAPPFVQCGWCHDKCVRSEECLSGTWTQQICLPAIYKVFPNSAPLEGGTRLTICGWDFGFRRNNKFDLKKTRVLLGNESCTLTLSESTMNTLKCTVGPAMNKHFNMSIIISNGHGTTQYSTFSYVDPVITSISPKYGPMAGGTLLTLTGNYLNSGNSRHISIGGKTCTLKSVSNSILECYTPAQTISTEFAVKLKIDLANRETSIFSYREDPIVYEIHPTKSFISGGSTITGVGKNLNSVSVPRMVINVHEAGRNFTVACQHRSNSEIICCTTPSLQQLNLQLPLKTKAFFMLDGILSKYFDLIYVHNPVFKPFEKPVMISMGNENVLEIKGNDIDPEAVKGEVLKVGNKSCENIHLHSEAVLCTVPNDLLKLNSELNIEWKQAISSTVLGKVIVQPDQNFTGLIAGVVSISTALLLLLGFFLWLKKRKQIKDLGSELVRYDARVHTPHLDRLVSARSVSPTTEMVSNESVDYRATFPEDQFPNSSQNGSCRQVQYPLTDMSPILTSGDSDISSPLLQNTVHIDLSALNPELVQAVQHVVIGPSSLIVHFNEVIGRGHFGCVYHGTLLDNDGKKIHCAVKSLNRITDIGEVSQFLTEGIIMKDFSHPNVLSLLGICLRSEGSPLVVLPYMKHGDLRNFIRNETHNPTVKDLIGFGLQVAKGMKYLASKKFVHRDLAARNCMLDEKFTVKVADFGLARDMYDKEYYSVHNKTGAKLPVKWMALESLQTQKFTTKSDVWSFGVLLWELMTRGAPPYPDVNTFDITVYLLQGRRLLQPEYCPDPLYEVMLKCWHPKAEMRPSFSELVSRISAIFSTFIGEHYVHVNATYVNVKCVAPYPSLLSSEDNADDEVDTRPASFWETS
row,Binder,fold over background
1,AGQFYCSGPPTFQCIMIGT [peptide-displaying phage 550-F11],1.23 fold
2,AGLPKCSGPPWFSCYYGGT (on M13 phage) [peptide-displaying phage 545-A09],1.36 fold
3,AGYSVCKGYPSFECAFFGT (on M13 phage) [peptide-displaying phage 336-D07],14.3 fold
4,GDLLVCKFDDKFWTETCEWADP (on M13 phage) [peptide-displaying phage 549-G05],14.5 fold
5,AQFDRYWHFAWMDVSFSSGQSG (on M13 phage) [peptide-displaying phage 92-B05],1.23 fold

# Target: T1, cMet-Fc fusion protein
# Test: phage protein ELISA, cMet-Fc vs TRAIL-Fc
# Experimental: Protein phage ELISAs using peptide-displaying phage isolates from the various selection campaigns were performed to determine specificity of the peptides for cMet versus an unrelated Fc-fusion protein (TRAIL-Fc). Briefly, 384-well plates were coated overnight at 4 C with 0.5 μg/mL of cMet-Fc fusion protein or TRAIL-Fc fusion protein (background). The plates were blocked for 2 hours 37 C with 3% (w/v) BSA in PBS containing 0.05% (v/v) Tween-20 (PBST). The plates were washed with PBST and 100 μL of peptide-displaying phage were added to each well. The plates were incubated for 2 hours at room temperature and washed with PBST. cMet-binding peptide-displaying phage were detected using an HRP-conjugated anti-M13 antibody.
row,Binder,fold over background
1,AGQFYCSGPPTFQCIMIGT [peptide-displaying phage 550-F11],1.4 fold
2,AGFWDCGWMMQDCHMHGT (on M13 phage) [peptide-displaying phage 470-C02],36.9 fold
3,GSHHTCLDGFAGWRCTEVAP (on M13 phage) [peptide-displaying phage 546-E02],40.4 fold
4,GSMLGCLFEHQNKYDCYVLAP (on M13 phage) [peptide-displaying phage 443-D04],3 fold

# Target: T1, cMet-Fc fusion protein
# Test: phage ELISA on cMet-Fc, competitor HGF 100 ng/mL
# Experimental: as §1
row,Binder,% of binding in the absence of HGF
1,AGQFYCSGPPTFQCIMIGT [peptide-displaying phage 550-F11],58%
2,AGETVCYWLNGWFCVDDGT (on M13 phage) [peptide-displaying phage 274-B07],343%
3,GSGDPCSPGPSINGHCSVMAP (on M13 phage) [peptide-displaying phage 453-A05],514%
4,AQDPGFSKHSMGHGYPSKMNWG (on M13 phage) [peptide-displaying phage 115-G02],57%
